What was measured:
3T3-L1 adipocytes = assay: Potency assay - glucose uptake in 3T3-L1 adipocytes; format: cell-based, mouse; conditions: EC50 relative to EC50 of Met-FGF21; 20 hours stimulation, 3H-deoxyglucose tracer
Experimental: The following assay was used for determining the biological activity, or potency, of FGF21 compounds of the invention. […] The cells are not allowed to reach confluence and should be passed (transferred to new vials) before reaching approx. 60% of confluency (by visual inspection). For the glucose uptake assay, cells are plated 80,000 cells/well in a 24 well plate, or 20,000 cells/well in a 96 well plate, and when they reach confluency (high density, with a view to have differentiated adipose cells made), the medium is changed from basal medium to basal medium containing Troglitazone, IBMX, Dexamethasone (commercially available from, e.g., Sigma) and human insulin (commercially available from, e.g., Novo Nordisk A/S). The cells are used 7-14, preferably 7-10, days after initiation of differentiation. […] This incubation is terminated by washing twice in ice cold assay buffer. The cells are lysed with Triton X-100 and lysates transferred to a 96 wells plate, microscint-40 (commercially available from, e.g., Perkin Elmer) is added and amount of tracer counted in a TOP-counter (e.g. a Packard top-counter from Perkin Elmer). The EC50 of the polypeptide in question is calculated.

[1] = test system: HEK293 cells stably transfected with human beta-Klotho; assay: HEK293/beta-Klotho Erk phosphorylation assay; format: cell-based; conditions: without HSA; 12 minutes incubation; AlphaScreen SureFire Phospho-ERK1/2; read-out: pERK-HEK293-Beta-klotho without HSA [EC50 (nM)] Mean Value
Experimental: Erk phosphorylation assay was performed in HEK293 cells that were stably transfected with human beta-Klotho. The HEK293T/b-klotho stable cells were seeded at 30000 cells/well on 96-well plates. After two days, fresh media was added, and after 2 hours more the FGF21 proteins were added. The plates were incubated for 12 minutes. And total ERK phosphorylation was assessed using an AlphaScreen SureFire Phospho-ERK1/2 Assay Kit (Perkin Elmer, Waltham, Mass.) according to the manufacturer's instructions and an EnVision Multilabel Microplate Reader Model 2103 (Perkin Elmer) with the AlphaScreen HTS Turbo option was used for signal detection. Data are represented as means+/−S.E.M. EC50 values were determined from a 4-parameter logistic nonlinear regression analysis using GraphPad Prism version 5.02. References: Yie, J. et al.: FGF21 N- and C-termini play different roles in receptor interaction and activation, FEBS Letters 583 (2009) 19-24, and Micanovic R. et al.: Different roles of N- and C-termini in the functional activity of FGF21. J. Cell. Physiol. 2009 May; 219(2):227-34.

[2] = Pharmacokinetics in mini pig, single intravenous dose; format: in vivo; conditions: normal male Göttingen mini pigs, single intravenous dose of 0.1 mg/kg; standard deviation 2.7 hours
Experimental: The pharmacokinetic profile of Met-FGF21 can be tested in normal male Göttingen mini pigs, n=4 (8-15 months old, weighing approximately 18-30 kg). The plasma concentration of the compound to be tested is monitored for 14 days. The Met-FGF21 is dosed as a single intravenous dose of 0.1 mg/kg (approximately 5 nmol/kg).
The plasma levels of the FGF21 compounds can be determined using Fibroblast Growth Factor-21 Human ELISA (available from BioVendor, catalogue no. RD191108200R). The PC based software, WinNonLin version 5.2 from Pharsight Corporation, Cary N.C., can be used for the pharmacokinetic calculation.

Molecule	Glucose uptake 3T3-L1 Potency (%) rel. to Met-FGF21 (3T3-L1 adipocytes) [%]	EC50 [1] [nM]	mean half-life (T1/2) [2] [h]
N-alpha(4-{[2-(2-{2-[2-(2-{2-[(S)-4-Carboxy-4-(17-carboxyheptadecanoylamino)butyrylamino]-ethoxy}ethoxy)acetylamino]ethoxy}ethoxy)acetylamino]methyl}benzyl) [S71C, N121Q, L166F, S167G, M168L, P171L, S172E, Q173A, G174V, Y179F, A180E, des181] Ala-FGF21 [Example 6]	352	0.4	–
N-alpha-(4-{[2-(2-{2-[2-(2-{2-[(S)-4-carboxy-4-(17-carboxyheptadecanoylamino)butyrylamino]ethoxy}ethoxy)acetylamino]ethoxy}ethoxy)acetylamino]methyl}benzyl) [K56R, K59R, K69R, D102T, D121Q, K122R, L166F, S167G, M168L, G170T] Ala-FGF21 [Example 5]	100	1	–
[Q28R, K56R, K59R, K69R, D102T, D121Q, K122R, L166F, S167G, M168L, G170T] Ala-FGF21 [Example 2b]	416	0.8	–
[S71C, N121Q, L166F, S167G, M168L, P171L, S172E, Q173A, G174V, Y179F, A180E, des181] Ala-FGF21 (protein) AHPIPDSSPLLQFGGQVRQRYLYTDDAQQTEAHLEIREDGTVGGAADQSPESLLQLKALKPGVIQILGVKTCRFLCQRPDGALYGSLHFDPEACSFRELLLEDGYNVYQSEAHGLPLHLPGQKSPHRDPAPRGPARFLPLPGLPPALPEPPGILAPQPPDVGSSDPFGLVGLEAVRSPSFE	872	–	–
[S71C, N121Q, L166F, S167G, M168L, des170, 173aA, G174V, Y179F, A180E, des181] Ala-FGF21 (protein) AHPIPDSSPLLQFGGQVRQRYLYTDDAQQTEAHLEIREDGTVGGAADQSPESLLQLKALKPGVIQILGVKTCRFLCQRPDGALYGSLHFDPEACSFRELLLEDGYNVYQSEAHGLPLHLPGQKSPHRDPAPRGPARFLPLPGLPPALPEPPGILAPQPPDVGSSDPFGLVPSQAVRSPSFE	663	–	–
N-alpha-bis-(4-{[(2-(2-{2-[2-(2-{2-[(S)-4-carboxy-4-(17-carboxyheptadecanoylamino)butyrylamino]ethoxy}ethoxy)acetylamino]ethoxy}-ethoxy)acetylamino]methyl}benzyl) [Arg56, Arg59, Arg69, Arg122] … (conjugate, UniProt Q9NSA1 29-209, looked up, variant K56R K59R K69R K122R, N-terminal Gly; bis fatty diacid-linker benzyl acylation) Fibroblast growth factor 21: HPIPDSSPLLQFGGQVRQRYLYTDDAQQTEAHLEIREDGTVGGAADQSPESLLQLRALRPGVIQILGVRTSRFLCQRPDGALYGSLHFDPEACSFRELLLEDGYNVYQSEAHGLPLHLPGNRSPHRDPAPRGPARFLPLPGLPPALPEPPGILAPQPPDVGSSDPLSMVGPSQGRSPSYAS	8.5	4.6	–
[N121Q, L166F, S167G, M168L, P171L, S172E, Q173A, G174V, Y179F, A180E, des181] Ala-FGF21 (protein) HPIPDSSPLLQFGGQVRQRYLYTDDAQQTEAHLEIREDGTVGGAADQSPESLLQLKALKPGVIQILGVKTSRFLCQRPDGALYGSLHFDPEACSFRELLLEDGYNVYQSEAHGLPLHLPGQKSPHRDPAPRGPARFLPLPGLPPALPEPPGILAPQPPDVGSSDPFGLVGLEAVRSPSFES	1593	0.7	–
Met-FGF21 (protein, comparative compound) MHPIPDSSPLLQFGGQVRQRYLYTDDAQQTEAHLEIREDGTVGGAADQSPESLLQLKALKPGVIQILGVKTSRFLCQRPDGALYGSLHFDPEACSFRELLLEDGYNVYQSEAHGLPLHLPGNKSPHRDPAPRGPARFLPLPGLPPALPEPPGILAPQPPDVGSSDPLSMVGPSQGRSPSYAS	100	–	10.8
[N121Q] Ala-FGF21 (protein) AHPIPDSSPLLQFGGQVRQRYLYTDDAQQTEAHLEIREDGTVGGAADQSPESLLQLKALKPGVIQILGVKTSRFLCQRPDGALYGSLHFDPEACSFRELLLEDGYNVYQSEAHGLPLHLPGQKSPHRDPAPRGPARFLPLPGLPPALPEPPGILAPQPPDVGSSDPLSMVGPSQGRSPSYAS	116	–	–
[K56R, K59R, K69R, K122R] Gly-FGF21 (protein) GHPIPDSSPLLQFGGQVRQRYLYTDDAQQTEAHLEIREDGTVGGAADQSPESLLQLRALRPGVIQILGVRTSRFLCQRPDGALYGSLHFDPEACSFRELLLEDGYNVYQSEAHGLPLHLPGNRSPHRDPAPRGPARFLPLPGLPPALPEPPGILAPQPPDVGSSDPLSMVGPSQGRSPSYAS	66	–	–
[N121Q] Met-FGF21 (protein) MHPIPDSSPLLQFGGQVRQRYLYTDDAQQTEAHLEIREDGTVGGAADQSPESLLQLKALKPGVIQILGVKTSRFLCQRPDGALYGSLHFDPEACSFRELLLEDGYNVYQSEAHGLPLHLPGQKSPHRDPAPRGPARFLPLPGLPPALPEPPGILAPQPPDVGSSDPLSMVGPSQGRSPSYAS	119	–	–
[S71C, N121Q, L166F, S167G, M168L, 173aA, G174V, Y179F, A180E, des181] Ala-FGF21 (protein) AHPIPDSSPLLQFGGQVRQRYLYTDDAQQTEAHLEIREDGTVGGAADQSPESLLQLKALKPGVIQILGVKTCRFLCQRPDGALYGSLHFDPEACSFRELLLEDGYNVYQSEAHGLPLHLPGQKSPHRDPAPRGPARFLPLPGLPPALPEPPGILAPQPPDVGSSDPFGLVGPSQAVRSPSFE	394	–	–

From patent publication US9655974B2, “N-terminal modified FGF21 compounds” (Novo Nordisk A/S, priority 2010, dated 2017)
